# According to patent US20060287320A1, “Preparation of thioarabinofuranosyl compounds and use thereof” (Southern Research Institute, priority 1998, published 2006):
# System: T1, Nc1ccn([C@@H]2S[C@H](CO)[C@@H](O)[C@@H]2O)c(=O)n1
# T1 construct: endogenous in cells; host or cells: Molt-4 cells (enzyme purified from the cells)
# Assay: purified protein, by the assay type
# Format: biochemical
# Details: other: dCyd kinase activity from Molt-4 cells
# Description: Each assay was done in duplicate and the kinetic constants were determined from linear double-reciprocal plots of 1/velocity versus 1/concentration of the substrate. The best line was determined by linear regression from at least 5 datum points, and the Km and Vmax were determined from the x and y intercepts.
# Chain of dCyd Kinase Activity Isolated from Molt-4 Cells (Homo sapiens) (chain, as listed by the source): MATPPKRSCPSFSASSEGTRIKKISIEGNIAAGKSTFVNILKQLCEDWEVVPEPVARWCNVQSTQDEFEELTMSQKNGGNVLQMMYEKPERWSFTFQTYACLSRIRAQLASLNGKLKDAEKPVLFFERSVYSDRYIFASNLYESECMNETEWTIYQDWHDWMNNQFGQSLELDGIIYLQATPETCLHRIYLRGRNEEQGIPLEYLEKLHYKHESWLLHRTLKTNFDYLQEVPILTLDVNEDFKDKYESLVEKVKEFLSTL
substance,measurement,value
dCyd Kinase Activity Isolated from Molt-4 Cells (Homo sapiens),Km,93 µM
